Experimental data published in article PMC7040222.

System: N=C(N)NCCC[C@H](NC(=O)[C@H](Cc1ccccc1)NC(=O)OCc1ccccc1)C(=O)Nc1ccc([N+](=O)[O-])cc1
Test: purified protein
Conditions: proenzyme heat-shocked 10 min at 56°C, then activated, assay at room temperature

EP-B2 (Hordeum vulgare), sequence (chain, as listed by the source): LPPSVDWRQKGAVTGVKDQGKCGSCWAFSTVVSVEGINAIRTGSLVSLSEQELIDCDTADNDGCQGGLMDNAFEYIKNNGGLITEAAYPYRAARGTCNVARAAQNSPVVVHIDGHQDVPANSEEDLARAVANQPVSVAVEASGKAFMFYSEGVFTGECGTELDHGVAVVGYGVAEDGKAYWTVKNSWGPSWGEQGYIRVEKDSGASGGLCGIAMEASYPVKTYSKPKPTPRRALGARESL
EP-B2 (Hordeum vulgare; K311A), sequence (chain, as listed by the source K311A): as the sequence (chain, as listed by the source) above, with K178A counted along it

Substance | Km [µM] | Vmax [µM/min] | Km (variant M3) [µM] | Vmax (variant M3) [µM/min]
EP-B2 (Hordeum vulgare) | 530.0 | 0.142 |  | 
EP-B2 (Hordeum vulgare; K311A) |  |  | 1188 | 0.236
